Key:
D3 domain deficient uPAR = biological target: T1, D3 domain deficient uPAR (Homo sapiens, UniProt Q03405, DEL192-274); assay: Yeast two hybrid with D3 domain deficient uPAR; format: binding
T1 construct: expressed in transfected cells; host or cells: yeast Y2HGold
From the text: […]

MCF7 cells = assay: Apoptosis staining (Calcein AM/PI), fluorescence microscopy; format: cell-based, human; settings: Calcein AM/PI staining vs PBS
Protocol: Method for apoptosis staining. Fluorescence microscopy detection: a. Seeding and culturing. Cells were seeded onto multiwell plates such as 96-well plates, cell culture dishes, or cell slides, and were treated in a certain way according to the experimental design. b. Washing (optionally). For adherent cells, the medium was removed, and cells were washed once with PBS. For suspended cells, cells were centrifuged at 250-1000×g at room temperature for 5 min, with the supernatant removed, followed by washing once with PBS. Phenol red or serum might interfere with the detection of this kit, therefore, a vacuum pump was preferred when removing the medium and PBS. PBS washing was not necessary in the case that the residual liquid can be sufficiently aspirated. c. Staining. An appropriate volume of Calcein AM/PI detection working solution (Beyotime Biotech. Inc., Calcein/PI Cell Viability and Cytotoxicity Detection Kit, Cat. No.: C2015) was added. Usually, 100 μl were added to each well for a 96-well plate, 250 μl for a 24-well plate, 500 μl for a 12-well plate, and 1 ml for a 6-well plate. Incubation was performed at 37° C. in dark for 30 min. […] After incubation, the staining effect was observed under a fluorescence microscope (with Calcein AM in green fluorescence, Ex/Em=494/517 nm; PI in red fluorescence, Ex/Em=535/617 nm). […]

T1 sequence (Q03405 with tags, fused parts or gaps DEL192-274): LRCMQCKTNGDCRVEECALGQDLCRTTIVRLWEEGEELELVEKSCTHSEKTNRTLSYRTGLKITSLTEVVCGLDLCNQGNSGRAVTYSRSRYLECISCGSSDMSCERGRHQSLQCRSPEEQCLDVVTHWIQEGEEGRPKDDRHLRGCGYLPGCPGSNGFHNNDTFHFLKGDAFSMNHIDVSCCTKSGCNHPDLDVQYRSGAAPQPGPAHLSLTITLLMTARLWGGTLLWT

B1: GhJAZ1: cotton JAZ1 protein, gene number Gh_A05G0260, sequence SEQ ID No. 4; prokaryotically expressed with His tag, about 30 KD (protein)
chain: MSSCSESTAMKPARSPEKPSFAQTCNLLSQYLKEKGSFGDLSLGMTCNVEANGTPVVPPPTMNLFPLNDKSDDVCGRNGGNPKNLTSMDLFPQQAGLASKDDSPNKLEPQTAPMTIFYGGQVIVFNDFPANKAKEIMLLASNSSSQSNNSFNPIPFTSSIARSPIESSIGVPPTSKPVHPAQRAVPGDLPIARRASLHRFLEKRKDRITAKAPYQINNSAAAPSLSGDNKSWLGLAAQSP
modifications: His tag
notes: prokaryotically expressed with His tag, about 30 KD
In the case of B1, the “interaction with D3 domain deficient uPAR” value (D3 domain deficient uPAR) is reported as “significantly weakened to none” and the “mortality rate of MCF7 cells” value (MCF7 cells) is reported as “significantly increased”.

Source: US20240279288A1, “APPLICATION OF PLANT JAZ PROTEINS AND DERIVED POLYPEPTIDES IN PREVENTION AND TREATMENT OF HUMAN AND ANIMAL TUMORS” (ANYANG INSTITUTE OF SINO-COTTON INDUSTRY INNOVATION, priority 2021, published 2024)
